Consider two molecules from article PMC3750073 (Biochemistry, 2013).

The test system of data set [1] is Nc1ccn([C@@H]2O[C@H](COP(=O)(O)O)[C@@H](O)[C@H]2O)c(=O)n1. Kind of data set: purified protein. To be noted: pH 7.5; 37.0 °C.
For data set [2], the system named is Nc1ccn([C@H]2C[C@H](O)[C@@H](COP(=O)(O)O)O2)c(=O)n1. In words: purified protein. To be noted: pH 7.5; 37.0 °C.
The data set “crystal structure” deals with the molecule itself. In words: crystal structure.

For (Streptomyces rimofaciens), in data set [1], the Km is given as 3.8 (0.5) mM and the kcat/Km is 5.2 M⁻¹ s⁻¹. In data set [2], the Km was 5.4 (0.8) mM and the kcat/Km worked out at 1.1 M⁻¹ s⁻¹.

B1: SeMet MilB (selenomethionine-containing MilB, CMP hydrolase of Streptomyces rimofaciens ZJU5119) (enzyme, UniProt B4Y381 1-170, looked up)
chain: MTTTPKPRTAPAVGSVFLGGPFRQLVDPRTGVMSSGDQNVFSRLIEHFESRGTTVYNAHRREAWGAEFLSPAEATRLDHDEIKAADVFVAFPGVPASPGTHVEIGWASGMGKPMVLLLERDEDYAFLVTGLESQANVEILRFSGTEEIVERLDGAVARVLGRAGEPTVIG
modifications: selenomethionine (SeMet-containing protein)
As to B1, in “crystal structure”, the “stoichiometry N” value was determined as 2.
